Patent publication US20210261663A1 (JIANGSU HENGRUI MEDICINE, published 2021)

Target: T1, human TIM-3 full-length, overexpressed on CHO-S cells (human, UniProt Q8TDQ0 22-301)
T1 construct: also called HAVCR2; Tim-3 overexpressing CHO-S cells
Experiment: cell-based ELISA on fixed CHO-S cells overexpressing full-length human TIM-3, HRP secondary antibody, OD450

B1: ABTim-3 (antibody, V domains shown)
VH: QVQLQQPGAELVKPGASVKMSCKASGYTFTSYNMHWIKQTPGQGLEWIGDIYPGNGDTSYNQKFKGKATLTADKSSSTVYMQLSSLTSEDSAVYYCARVGGAFPMDYWGQGTSVTVSS
VL: DIVLTQSPASLAVSLGQRATISCRASESVEYYGTSLMQWYQQKPGQPPKLLIYAASNVESGVPARFSGSGSGTDFSLNIHPVEEDDIAIYFCQQSRKDPSTFGGGTKLEIK
With B1 the “EC50 (read off the curve)” value was ~0.1 nM.
